Source: PMC7382286, “Extensive sequence and structural evolution of Arginase 2 inhibitory antibodies enabled by an unbiased approach to affinity maturation” (Proceedings of the National Academy of Sciences of the …, 2020)

Legend:
[1] = biological target: the molecule itself; assay: crystal structure; ARG2-Fab C0020187 complex purified by SEC, crystallised; space group P 6(5) 2 2, 3.25 Å
[2] = biological target: T1, recombinant human Arginase 2 (human, UniProt P78540); assay: SEC; Fab and ARG2 in solution; ratio of Fab to ARG2 upon complex formation; details: both partners purified
T1 construct: Arginase 2 (ARG2), human, recombinant; also called ARG2; trimeric ARG2; source: recombinant

[3] = biological target: T1, recombinant human Arginase 2; assay: cell-based or functional assay
[4] = biological target: T2, biotinylated recombinant human Arginase 2 (Homo sapiens, UniProt P78540, biotin (biotinylated; site not stated)); assay: BLI; OctetRED96, 25 °C, PBS with 0.01% BSA and 0.002% Tween 20; biotinylated human ARG2 captured on streptavidin sensors, Fabs titrated as analyte; 1:1 binding model (heterogeneous ligand model for C0020187); details: both partners purified
T2 construct: Arginase 2 (ARG2), human, recombinant; Construct, tags and the way of biotinylation are in the SI Appendix; also called ARG2; biotinylated human ARG2; source: recombinant

[5] = biological target: T1, recombinant human Arginase 2; assay: crystal structure; ARG2-Fab C0020187 complex purified by SEC, crystallised; space group P 6(5) 2 2, 3.25 Å; details: both partners purified

Binder	stoichiometry N [2] [Fab per ARG2 trimer]	binding result [4]	other results
recombinant human Arginase 2 (enzyme, Arginase 2 (ARG2), human, recombinant; also called ARG2; trimeric ARG2; source: recombinant) VHSVAVIGAPFSQGQKRKGVEHGPAAIREAGLMKRLSSLGCHLKDFGDLSFTPVPKDDLYNNLIVNPRSVGLANQELAEVVSRAVSDGYSCVTLGGDHSLAIGTISGHARHCPDLCVVWVDAHADINTPLTTSSGNLHGQPVSFLLRELQDKVPQLPGFSWIKPCISSASIVYIGLRDVDPPEHFILKNYDIQYFSMRDIDRLGIQKVMERTFDLLIGKRQRPIHLSFDIDAFDPTLAPATGTPVVGGLTYREGMYIAEEIHNTGLLSALDLVEVNPQLATSEEEAKTTANLAVDVIASSFGQTREGGHIVYDQLPTPSSPDESENQARVRI			stoichiometry N [1]: 3
Fab C0021177 (Fab, V domains shown, VH of C0021177; VL of C0021177; Pool-maturation lead) VH: EVQLLESGGGLVQPGGSLRLSCAASGFTFRYEVAAWVRQAPGKGLEWVSAISGPAPKGYYADSVKGRFTISRDNSKNTLYLQMNSLRAEDTAVYYCARLRADLGLYMDLWGRGTLVTVSS VL: QSELTQPPTASAAPGQKVTISCSGSSSNIGNHYVSWYQQLPGTAPKLLIYDTTVLSSGIPDRFSGSKSGTSATLGITGLQTGDEADYYCGTWDELTSNLVFGGGTKLTVL	3		
Fab C0020187 (Fab, V domains shown, VH of C0020187; Fab heavy-chain constant region; VL of C0020187; Fab light-chain constant region; also called parental antibody; parent Fab C0020187) VH: not shown VL: QSVLTQPPSVSAAPGQKVTISCSGSSSNIGNHYVSWYQQLPGTAPKLLIYDNSERPSGIPDRFSGSKSGTSATLGITGLQTGDEADYYCGTWDSSLSALVFGGGTKLTVL	1		inhibition of the enzymatic activity of recombinant human ARG2 (1 µg/mL, ~24 nM; urea measured colorimetrically), IC50 [3]: 900 nM; KD of the initial high-affinity binding site (heterogeneous ligand model) [4]: ~10 nM; stoichiometry N [5]: 3 Fab per ARG2 trimer
Fab C0021158 (Fab, V domains shown, VH of C0021158; VL of C0021158; Pool-maturation lead; 18 amino acid changes against C0020187) VH: EVQLLESGGGLVQPGGSLRLSCAASGFTFRYEVAAWVRQAPGKGLEWVSAISGPIPKGYYADSVKGRFTISRDNSKNTLYLQMNSLRAEDTAVYYCARLRADLGLYMDLWGRGTLVTVSS VL: QSVLTQPPSVSAAPGQKVTISCSGSSSNIGNHYVSWYQQLPGTAPKLLIYDNSERTAGVPDRFSGSKSGTSATLGITGLQTGDEADYYCGTWDELTSNLVFGGGTKLTVL	3		
Fab C0021181 (Fab, V domains shown, VH of C0021181; VL of C0021181; Pool-maturation lead; 18 amino acid changes against C0020187) VH: EVQLLESGGGLVRPGGSLRLSCAASEFTFRYDYHVWVRQAPGKGLEWVSAISGSGGSTYYADSVKSRFTISRDNSKNTLYLQMNSLRAEDTAVYYCARLRADLGLYMDLWGRGTLVTVSS VL: QSVLTQPPSVSAAPGQKVAVSCSGSSSNIGSHYVSWYQQLPGTAPKLLIYDNSERTSGIPDRFSGSKSGTSATLGITGLQTGDEADYYCGTWDELTSNLVFGGGTRLTVL	3		

Second part, led by results:

stoichiometry N [2] [Fab per ARG2 trimer]	binding result [4]	Binder	other results
	binds	Fab C0021128 (Fab, V domains shown, VH of C0021128; Fab heavy-chain constant region; VL of C0021128; Fab light-chain constant region) VH: EVQLLESGGGLVQPGGSLRLSCAASGFTFQYEVAAWVRQAPGKGLEWVSAISGPIPKGYYADSVKGRFTISRDNSKNTLYLQMNSLRAEDTAVYYCARLRADLGLYMDLWGRGTLVTVSS VL: QSVLTQPPSVSAAPGQKVTISCSGSSSNIGNHYVSWYQQLPGTAPKLLIYDNAIESSGIPDRFSGSKSGTSATLGITGLQTGDGADYYCGTWDSNLSALVFGGGTKLTVL	
	binds	Fab C0021133 (Fab, V domains shown, VH of C0021133; Fab heavy-chain constant region; VL of C0021133; Fab light-chain constant region) VH: EVQLLESGGGLVQPGGSLRLSCAASGFTFRYDHHVWVRQAPGKGLEWVSAISGSGGSTYYADSVKGRFTISRDNSKNTLYLQMNSLRAEDTAVYYCARLRADLGLYMDLWGRGTLVTVSS VL: QSVLTQPPSVSAAPGQKVTVSCSGSSSNIGNHYVSWYQQLPGTAPKLLIYDTTVLSSGIPDRFSGSKSGTSATLGITGLQTGDEADYYCGTWDELTSNLVFGGGTKLTVL	
	binds	Fab C0021139 (Fab, V domains shown, VH of C0021139; Fab heavy-chain constant region; VL of C0021139; Fab light-chain constant region) VH: EVQLLESGGGLVQPGGSLRLSCAASGFTFQYDYQVWVRQAPGKGLEWVSAISGSGGSTYYADSVKGRFTISRDNSKNTLYLQMNSLRAEDTAVYYCARLRADLGLYMDLWGRGTLVTVSS VL: QSVLTQPPSVSAAPGQKVTISCSGSSSNIGNHYVSWYQQLPGTAPKLLIYDNSERTSGIPDRFSGSKSGTSATLGITGLQTGDEADYYCGTWDELTSNLVFGGGTKLTVL	
